Measurements from paper doi:10.1101/2020.09.04.283184 (bioRxiv, 2020).

Target: the molecule itself
Assay: PORT-HS-AFM

B1: Chlamydomonas reinhardtii SAS-6[NL] homodimer (domain or fragment, UniProt A9CQL4 1-503, looked up)
chain: MPLLLDDGDPKAQTGFDLSTATTLFWRPVPVHVKQQDREDVLEELTFRILTGVAKQNHNLRILRIHISSDSDLFFLHTLEVSEEDFQSLKNDQGILVDFASFPGKIISLLEKCILAQPGDSPRFQAVLTIRGGESVFKIVEINDFKQLPHITLAFRPGNDSVVKQFLAFRLSEVKGTCHDLSDDLSRTRDDRDSMVAQLAQCRQQLAQLREQYDKHLLEVQAQAKTQQASAHEERIREKSQLKDQFEKERGEMEGRYRDQIAALNTRLGELDTENRKLREVKYELDTKVSELSHKLGSSEGSNRSLEEETARLRSLNQQLSSSKHELEIQLNEAKAKVLALDEKAQSQGDVIEQQRGRLRDMEAALRQTEQRCADLRDTLASAEGRAKEAQAEVLKGNQAIEKLTNDLRLAKEKTKRKAAIILRQEEELQEREQSLANATRDVGVLGQQAESLRKDVASLHSENDSLRSKLEDSKQQLQSNEQMIRWLNQQVTEAQLHASGAT
stoichiometry N: 7 to 10 homodimers
